Reference: patent publication US20240376225A1 (CHILDREN S MEDICAL CENTER, published 2024)
Read-outs that look alike come from different tables or passages of the source.

T1: human CD21 on Raji B cells or primary B cells (human, UniProt P20023 21-1033)
T1 sequence (looked up): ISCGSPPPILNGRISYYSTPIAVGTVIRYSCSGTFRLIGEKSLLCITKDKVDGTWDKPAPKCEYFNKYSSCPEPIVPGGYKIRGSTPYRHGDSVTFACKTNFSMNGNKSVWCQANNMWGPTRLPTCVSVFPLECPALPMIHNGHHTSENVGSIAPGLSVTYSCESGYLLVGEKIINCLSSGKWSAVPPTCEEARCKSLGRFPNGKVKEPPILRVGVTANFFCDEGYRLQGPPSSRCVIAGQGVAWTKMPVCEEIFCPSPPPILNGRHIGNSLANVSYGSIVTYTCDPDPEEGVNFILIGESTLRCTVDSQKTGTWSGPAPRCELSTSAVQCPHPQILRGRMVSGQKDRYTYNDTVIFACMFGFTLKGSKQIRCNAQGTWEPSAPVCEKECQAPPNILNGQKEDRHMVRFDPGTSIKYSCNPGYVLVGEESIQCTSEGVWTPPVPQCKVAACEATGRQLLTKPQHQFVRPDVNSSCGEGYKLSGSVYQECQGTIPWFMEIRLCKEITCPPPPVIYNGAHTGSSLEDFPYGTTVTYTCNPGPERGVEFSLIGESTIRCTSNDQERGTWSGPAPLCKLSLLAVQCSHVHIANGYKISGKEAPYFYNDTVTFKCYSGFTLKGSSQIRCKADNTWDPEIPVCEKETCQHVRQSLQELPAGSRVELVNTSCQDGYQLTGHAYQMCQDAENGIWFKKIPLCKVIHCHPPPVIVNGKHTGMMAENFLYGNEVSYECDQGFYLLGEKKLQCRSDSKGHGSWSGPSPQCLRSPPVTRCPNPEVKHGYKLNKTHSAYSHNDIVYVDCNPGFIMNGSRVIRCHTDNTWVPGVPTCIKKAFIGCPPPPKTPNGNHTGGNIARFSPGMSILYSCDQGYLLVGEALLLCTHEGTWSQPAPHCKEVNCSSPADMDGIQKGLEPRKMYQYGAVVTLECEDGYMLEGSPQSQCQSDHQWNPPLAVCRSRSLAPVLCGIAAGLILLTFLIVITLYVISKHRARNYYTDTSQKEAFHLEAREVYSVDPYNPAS

T2: human CD21 protein (human, UniProt P20023 21-971, limits assumed)
T2 construct: the Biacore set-up is not described; also called huCD21; CR2
T2 sequence (looked up): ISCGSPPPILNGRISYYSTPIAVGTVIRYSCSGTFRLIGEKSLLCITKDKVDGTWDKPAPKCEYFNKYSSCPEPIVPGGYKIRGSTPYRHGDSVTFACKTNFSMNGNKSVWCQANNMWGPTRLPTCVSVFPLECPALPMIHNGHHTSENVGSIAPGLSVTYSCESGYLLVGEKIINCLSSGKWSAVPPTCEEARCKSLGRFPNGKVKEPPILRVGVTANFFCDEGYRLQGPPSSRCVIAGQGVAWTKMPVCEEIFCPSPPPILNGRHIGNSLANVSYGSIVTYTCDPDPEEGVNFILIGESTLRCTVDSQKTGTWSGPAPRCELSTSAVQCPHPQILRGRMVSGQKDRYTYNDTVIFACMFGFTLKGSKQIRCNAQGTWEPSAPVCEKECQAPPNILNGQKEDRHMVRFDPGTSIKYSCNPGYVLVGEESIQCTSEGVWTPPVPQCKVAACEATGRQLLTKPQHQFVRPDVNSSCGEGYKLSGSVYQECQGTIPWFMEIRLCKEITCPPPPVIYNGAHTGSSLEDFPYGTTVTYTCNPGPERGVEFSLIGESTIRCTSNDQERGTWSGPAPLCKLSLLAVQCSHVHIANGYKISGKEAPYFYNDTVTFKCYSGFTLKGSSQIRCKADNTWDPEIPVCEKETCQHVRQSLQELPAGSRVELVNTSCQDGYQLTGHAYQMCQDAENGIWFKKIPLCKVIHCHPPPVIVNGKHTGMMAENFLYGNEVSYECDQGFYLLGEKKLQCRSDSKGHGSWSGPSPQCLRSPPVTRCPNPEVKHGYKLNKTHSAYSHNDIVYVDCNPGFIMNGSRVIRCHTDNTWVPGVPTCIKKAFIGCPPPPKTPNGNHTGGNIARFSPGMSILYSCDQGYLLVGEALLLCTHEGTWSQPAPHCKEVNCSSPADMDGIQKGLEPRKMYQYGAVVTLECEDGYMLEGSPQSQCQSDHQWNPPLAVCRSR


Experiments:
[1] = target: T1, human CD21 on Raji B cells or primary B …; assay: cell-based or functional assay
human CD21 protein [2] = target: T2, human CD21 protein; assay: SPR (Biacore)
[3] = target: T1, human CD21 on Raji B cells or primary B …; assay: cell-based or functional assay; remark: listed apart in the source
[4] = target: cyno CD21 protein (cynomolgus monkey); assay: affinity KD; method not restated (Biacore elsewhere)
human CD21 protein [5] = target: T2, human CD21 protein; assay: as above
insulin = insulin (UniProt P01308); assay: polyreactivity ELISA on coated insulin; third number of the cell
insulin, sequence (P01308 25-54 limits assumed, chain 1 of 2): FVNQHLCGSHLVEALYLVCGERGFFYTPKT
insulin, sequence (P01308 90-110 limits assumed, chain 2 of 2): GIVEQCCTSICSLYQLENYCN

[6] = target: cyno CD21 protein (cynomolgus monkey); assay: SPR (Biacore)

| pAKT inhibition, IC50, nM; Primary B cells [1] | pAKT inhibition, IC50, nM; Raji B cells [1] | Kd (human CD21 protein [2]) | pAKT inhibition, IC50, nM; Primary B cells [3] | pAKT inhibition, IC50, nM; Raji B cells [3] | Kd [4] | Kd (human CD21 protein [5]) | insulin-binding score (ratio to buffer well) (insulin) | Kd [6] | Binder |
| --- | --- | --- | --- | --- | --- | --- | --- | --- | --- |
| 14.6 nM | 8.59 nM | 0.78 nM | 14.6 nM | 8.59 nM | 9.73 nM | 0.78 nM | 2 | 9.13 nM | Ab416 (antibody, human IgG1, kappa, V domains shown, IgG1) VH: QVQLVQSGAEVKKPGSSVKVSCKASGGTFSSYAISWVRQAPGQGLEWMGRIIPILGIANYAQKFQGRVTITADKSTSTAYMELSSLRSEDTAVYYCAREDDSSGYYQDWGQGTLVTVSS VL: EIVMTQSPATLSVSPGERATLSCRAGQSINSYLAWYQQKPGQAPRLLIYDASTRATGIPARFSGSGSGTEFTLTISSLQSEDFAVYYCQQYEYWYTFGQGTKLEIKR |
| – | – | – | – | – | 0.12 nM | 0.02 nM | – | – | Ab633 (antibody, human IgG1, kappa, V domains shown, IgG1) VH: QVQLVQSGAEVKKPGSSVKVSCKASGGTFSSYAISWVRQAPGQGLEWMGRIIPILGIANYAQKFQGRVTITADKSTSTAYMELSSLRSEDTAVYYCAREEDISGYYQDWGQGTLVTVSS VL: EIVMTQSPATLSVSPGERATLSCRAGQSISRYLAWYQQKPGQAPRLLIYDASSRATGIPARFSGSGSGTEFTLTISSLQSEDFAVYYCQQYEYWYSFGQGTKLEIKR |
| – | – | – | – | – | 0.1 nM | 0.02 nM | – | – | Ab629 (antibody, human IgG1, kappa, V domains shown, IgG1) VH: QVQLVQSGAEVKKPGSSVKVSCKASGGTFSSYAISWVRQAPGQGLEWMGRIIPILGIANYAQKFQGRVTITADKSTSTAYMELSSLRSEDTAVYYCAREEDISGYYQDWGQGTLVTVSS VL: EIVMTQSPATLSVSPGERATLSCRAGQSISRYLAWYQQKPGQAPRLLIYDASTRATGIPARFSGSGSGTEFTLTISSLQSEDFAVYYCQQYEYWYSFGQGTKLEIKR |
| – | – | – | – | – | 0.19 nM | 0.03 nM | – | – | Ab631 (antibody, human IgG1, kappa, V domains shown, IgG1) VH: QVQLVQSGAEVKKPGSSVKVSCKASGGTFSSYAISWVRQAPGQGLEWMGRIIPILGIANYAQKFQGRVTITADKSTSTAYMELSSLRSEDTAVYYCAREEDISGYYQDWGQGTLVTVSS VL: EIVMTQSPATLSVSPGERATLSCRAGQKISSYLAWYQQKPGQAPRLLIYDASSRATGIPARFSGSGSGTEFTLTISSLQSEDFAVYYCQQYEYWYSFGQGTKLEIKR |
| 4.43 nM | – | – | – | – | 0.08 nM | 0.01 nM | – | – | Ab632 (antibody, human IgG1, kappa, V domains shown, IgG1) VH: QVQLVQSGAEVKKPGSSVKVSCKASGGTFSSYAISWVRQAPGQGLEWMGRIIPILGIANYAQKFQGRVTITADKSTSTAYMELSSLRSEDTAVYYCAREEDISGYYQDWGQGTLVTVSS VL: EIVMTQSPATLSVSPGERATLSCRAGQSISHYLAWYQQKPGQAPRLLIYDASSRATGIPARFSGSGSGTEFTLTISSLQSEDFAVYYCQQYEYWYSFGQGTKLEIKR |
| – | – | – | – | – | 0.09 nM | 0.01 nM | – | – | Ab630 (antibody, human IgG1, kappa, V domains shown, IgG1) VH: QVQLVQSGAEVKKPGSSVKVSCKASGGTFSSYAISWVRQAPGQGLEWMGRIIPILGIANYAQKFQGRVTITADKSTSTAYMELSSLRSEDTAVYYCAREEDISGYYQDWGQGTLVTVSS VL: DIVMTQSPATLSVSPGERATLSCRAGQSISSYLAWYQQKPGQAPRLLIYDASSRATGIPARFSGSGSGTEFTLTISSLQSEDFAVYYCQQYEYWYSFGQGTKLEIKR |
| 11.7 nM | – | – | – | – | 0.11 nM | 0.01 nM | – | – | Ab628 (antibody, human IgG1, kappa, V domains shown, IgG1) VH: QVQLVQSGAEVKKPGSSVKVSCKASGGTFSSYAISWVRQAPGQGLEWMGRIIPILGIANYAQKFQGRVTITADKSTSTAYMELSSLRSEDTAVYYCAREEDISGYYQDWGQGTLVTVSS VL: EIVMTQSPATLSVSPGERATLSCRAGQSISHYLAWYQQKPGQAPRLLIYDASTRATGIPARFSGSGSGTEFTLTISSLQSEDFAVYYCQQYEYWYSFGQGTKLEIKR |
| – | – | – | – | – | 0.15 nM | 0.02 nM | – | – | Ab627 (antibody, human IgG1, kappa, V domains shown, IgG1) VH: QVQLVQSGAEVKKPGSSVKVSCKASGGTFSSYAISWVRQAPGQGLEWMGRIIPILGIANYAQKFQGRVTITADKSTSTAYMELSSLRSEDTAVYYCAREEDISGYYQDWGQGTLVTVSS VL: EIVMTQSPATLSVSPGERATLSCRAGQKISSYLAWYQQKPGQAPRLLIYDASTRATGIPARFSGSGSGTEFTLTISSLQSEDFAVYYCQQYEYWYSFGQGTKLEIKR |
| 47.8 nM | 11.2 nM | 2.38 nM | 47.8 nM | 11.2 nM | 0.21 nM | 2.38 nM | 2 | 0.21 nM | Ab419 (antibody, human IgG1, kappa, V domains shown, IgG1) VH: QVQLVQSGAEVKKPGSSVKVSCKASGGELQTLAISWVRQAPGQGLEWMGRIIPILGIANYAQKFQGRVTITADKSTSTAYMELSSLRSEDTAVYYCAREDDISGYYQDWGQGTLVTVSS VL: EIVMTQSPATLSVSPGERATLSCRAGQSINSHLAWYQQKPGQAPRLLIYDASTRATGIPARFSGSGSGTEFTLTISSLQSEDFAVYYCQQYEYWYTFGQGTKLEIKR |
| 3.94 nM | 8.91 nM | 0.02 nM | 3.94 nM | 8.91 nM | 0.08 nM | 0.02 nM | 2 | 0.08 nM | Ab417 (antibody, human IgG1, kappa, V domains shown, IgG1) VH: QVQLVQSGAEVKKPGSSVKVSCKASGGELQDLAISWVRQAPGQGLEWMGRIIPILGIANYAQKFQGRVTITADKSTSTAYMELSSLRSEDTAVYYCAREDDISGYYQDWGQGTLVTVSS VL: EIVMTQSPATLSVSPGERATLSCRAGQSINSYLAWYQQKPGQAPRLLIYDASTRATGIPARFSGSGSGTEFTLTISSLQSEDFAVYYCQQYEYWYTFGQGTKLEIKR |
| 61.1 nM | 26.2 nM | 2.26 nM | 61.1 nM | 26.2 nM | 0.22 nM | 2.26 nM | 2 | 0.22 nM | Ab420 (antibody, human IgG1, kappa, V domains shown, IgG1) VH: QVQLVQSGAEVKKPGSSVKVSCKASGGTFSSYAISWVRQAPGQGLEWMGRIIPILGIANYAQKFQGRVTITADKSTSTAYMELSSLRSEDTAVYYCAREDDISGYYQDWGQGTLVTVSS VL: EIVMTQSPATLSVSPGERATLSCRAGQSINSHLAWYQQKPGQAPRLLIYDASTRATGIPARFSGSGSGTEFTLTISSLQSEDFAVYYCQQYEYWYTFGQGTKLEIKR |
